“Also recorded” adds a separate entry of the source.
Experiments:
hTERT promoter = assay: hTERT-luc reporter (luciferase) assay in 293T cells; type: cell-based, human
Protocol: FIG. 8.—Activity of the hTERT promoter in the 293T cell lines: pLNCX and 24.2 and in 293T cells transiently transfected with the pLNCX-24.2 construct and the pLNCX empty plasmid. A) Both the pLNCX and the 24.2 cells were transiently transfected with 0.25 μg of the hTERT-luc reporter vector. The cells were seeded in 60-mm plates. After 24 hours of transfection, the cells were lysed and the luciferase activity of 10 μg of total protein was quantified. As a transfection control, the cells were co-transfected with a reporter vector, CMV-Renilla. B) The 293T cells were transfected with the pLNCX vector and the 24.2 plasmid (5 μg), and both were co-transfected with 0.25 μg of the hTERT-luc reporter vector. After seeding the cells as in A, they were transfected with pLNCX and 24.2, and co-transfected with the hTERT-luc reporter vector; subsequently, they were treated as in A. As a transfection control, the CMV-Renilla reporter vector was used. The data correspond to the ratio of relative units of luciferase with respect to non-transfected cells. Each point represents the mean±the standard deviation obtained from 3 independent experiments. C) The 293T cells were transfected with the different GSE 24.4, DSK, TRUB I, TRUB II constructs and the pLNCX empty plasmid (5 μg), and co-transfected with 0.25 μg of the hTERT-luc reporter vector. The cells were seeded in 60-mm plates; after 24 hours of transfection, the cells were lysed and the luciferase activity of 10 μg of total protein was quantified. As a transfection control, the cells were co-transfected with a CMV-Renilla reporter vector. The data correspond to the ratio of relative units of luciferase with respect to non-transfected cells. Each point represents the mean±the standard deviation obtained from 3 independent experiments.
FIG. 9.—Activity of the hTERT promoter following treatment with cisplatin. A) Both the pLNCX cell line and the 24.2 cell line were transiently transfected with 0.25 μg of the hTERTIuc reporter vector. After 24 hours of transfection, they were treated with 3 μg/ml of cisplatin for 8 hours. The cells were seeded in 60-mm plates; after 24 hours of transfection and following treatment with cDDP, the cells were lysed and the luciferase activity of 10 μg of total protein was quantified. As a transfection control, the cells were co-transfected with a CMV-Renilla reporter vector. B) 293T cells which, after being transiently transfected with pLNCX and 24.2, were co-transfected with 0.25 μg of the hTERT-luc reporter vector and treated as in A. After seeding the cells as in A, they were transfected with pLNCX and 24.2, and co-transfected with the hTERT-luc reporter vector; subsequently, they were treated as in A. As a transfection control, the CMV-Renilla reporter vector was used. The data correspond to the ratio of relative units of luciferase with respect to non-transfected cells. Each point represents the mean±the standard deviation obtained from 3 independent experiments.
A) The 293T cells were co-transfected with different constructs (10 μg/DNA per million cells) and the hTERT-luc reporter (1 μg per million cells). The specified cell lines were co-transfected with the hTERT-luc reporter and different quantities of the Mad/myc expression vector. (B) The specified cell lines were co-transfected with the HIV-luc reporter and with different quantities of the Mad/myc expression vector. After 24 h of transfection, the cells were stimulated with 50 ng/ml of TNF-α for 6 hours and the luciferase activity was analysed as described above. CMV-Renilla (0.1 μg/ml per million cells) was used as a control for the transfection efficiency. The data represent the mean of two experiments performed in quadruplicate.
The pseudouridine synthase TRUB domain of dyskerin comprises two structural subdomains: the Trub I and II motifs (Zucchini et al., 2003). These two domains are critical to maintain the global protein structure of dyskerin. […]

telomerase = telomerase (Homo sapiens, UniProt O14746); assay: Telomerase activity (TRAP) of 293T cell lines treated with cisplatin; type: cell-based; set-up: endogenous in cells; host or cells: 293T cells stably transfected with empty pLNCX or pLNCX 24.2; settings: pre-treated 0.5 μg/ml 3 days, then 3 μg/ml cisplatin for 7 days
Protocol: FIG. 5.—Telomerase activity of the 293T cell lines: pLNCX and 24.2 following treatment with cisplatin. The cells were seeded in 60-mm plates, pre-treated with 0.5 μg/ml of cisplatin for 3 days and subsequently treated with cisplatin at a dose of 3 μg/ml […]. The telomerase activity was measured by means of the Intergen TRAPeze assay. The experiment was performed 3 times, with similar results.
To this end, an assay of telomerase activity was performed using the TRAP method with the pLNCX and pLNCX 24.2 cell lines (FIG. 5), pre-treating them for 3 days with 0.5 μg/ml of cisplatin; subsequently, they were treated with 3 μg/ml of cisplatin for 3 and 7 days. […]
Telomerase activity assay based on the TRAP method Wright et al., 1995). The telomerase activity was measured using the TRAPeze telomerase detection kit (Intergen) in accordance with the instruction manual. The protein concentration of each extract was quantified by means of the Bradford method using the BIORAD reagent and after performing a PCR in accordance with the manual instructions; polyacrylamide gel electrophoresis was performed with the reaction products under non-denaturing conditions and, subsequently, it was stained with Ethidium bromide for 30 minutes.

Sequence of telomerase (O14746 whole entry): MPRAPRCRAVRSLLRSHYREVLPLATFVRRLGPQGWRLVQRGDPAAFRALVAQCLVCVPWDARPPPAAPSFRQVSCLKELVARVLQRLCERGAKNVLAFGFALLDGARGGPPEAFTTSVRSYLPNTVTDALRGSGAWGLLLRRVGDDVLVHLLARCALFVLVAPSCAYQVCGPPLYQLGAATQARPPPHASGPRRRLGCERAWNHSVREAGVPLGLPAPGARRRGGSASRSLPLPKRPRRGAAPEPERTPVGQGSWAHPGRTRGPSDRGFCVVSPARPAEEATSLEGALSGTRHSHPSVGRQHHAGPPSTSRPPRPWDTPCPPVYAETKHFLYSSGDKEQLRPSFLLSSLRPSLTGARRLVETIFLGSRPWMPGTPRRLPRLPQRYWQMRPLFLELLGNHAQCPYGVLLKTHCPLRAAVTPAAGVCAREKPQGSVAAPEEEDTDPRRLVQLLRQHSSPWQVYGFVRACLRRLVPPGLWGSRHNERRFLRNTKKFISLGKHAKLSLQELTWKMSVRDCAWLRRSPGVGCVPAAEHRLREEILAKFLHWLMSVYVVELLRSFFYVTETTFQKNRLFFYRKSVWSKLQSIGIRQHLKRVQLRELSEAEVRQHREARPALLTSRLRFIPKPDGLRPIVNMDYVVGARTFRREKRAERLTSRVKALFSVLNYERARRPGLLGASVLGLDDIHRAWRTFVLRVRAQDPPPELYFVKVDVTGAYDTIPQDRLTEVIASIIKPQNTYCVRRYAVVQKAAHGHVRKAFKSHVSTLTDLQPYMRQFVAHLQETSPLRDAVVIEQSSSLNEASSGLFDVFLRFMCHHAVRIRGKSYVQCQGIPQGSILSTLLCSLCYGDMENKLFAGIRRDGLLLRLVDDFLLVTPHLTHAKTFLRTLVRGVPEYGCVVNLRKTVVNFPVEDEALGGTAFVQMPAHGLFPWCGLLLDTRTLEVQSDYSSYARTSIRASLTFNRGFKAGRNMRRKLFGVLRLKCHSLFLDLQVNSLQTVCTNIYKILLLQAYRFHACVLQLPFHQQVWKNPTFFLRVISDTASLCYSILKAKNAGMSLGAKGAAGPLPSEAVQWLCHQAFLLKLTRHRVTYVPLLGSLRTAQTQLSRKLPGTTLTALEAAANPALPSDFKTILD
Sequence of telomerase (O60832 2-514 partner limits assumed): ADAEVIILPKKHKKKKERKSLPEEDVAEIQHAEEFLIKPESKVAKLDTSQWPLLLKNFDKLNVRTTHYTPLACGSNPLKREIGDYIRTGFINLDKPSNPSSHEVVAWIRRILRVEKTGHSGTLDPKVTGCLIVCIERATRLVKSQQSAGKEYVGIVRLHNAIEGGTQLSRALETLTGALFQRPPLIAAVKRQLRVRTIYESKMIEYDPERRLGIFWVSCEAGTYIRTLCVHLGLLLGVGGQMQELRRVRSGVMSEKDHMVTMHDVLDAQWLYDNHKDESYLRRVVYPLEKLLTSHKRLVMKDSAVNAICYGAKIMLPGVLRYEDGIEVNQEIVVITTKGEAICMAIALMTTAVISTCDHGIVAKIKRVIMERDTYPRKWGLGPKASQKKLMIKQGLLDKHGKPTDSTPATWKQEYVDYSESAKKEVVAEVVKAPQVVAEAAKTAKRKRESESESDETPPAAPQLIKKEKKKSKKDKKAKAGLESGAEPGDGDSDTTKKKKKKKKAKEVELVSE
Sequence of telomerase (Q9NPE3 whole entry partner): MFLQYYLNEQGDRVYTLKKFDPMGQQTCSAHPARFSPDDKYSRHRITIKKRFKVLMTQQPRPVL
Sequence of telomerase (Q9NX24 whole entry partner): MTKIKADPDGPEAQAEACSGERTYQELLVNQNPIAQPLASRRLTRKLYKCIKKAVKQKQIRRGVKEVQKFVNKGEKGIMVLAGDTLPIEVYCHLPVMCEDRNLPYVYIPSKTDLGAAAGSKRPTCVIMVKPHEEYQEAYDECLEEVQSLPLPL
Sequence of telomerase (Q9NY12 whole entry partner): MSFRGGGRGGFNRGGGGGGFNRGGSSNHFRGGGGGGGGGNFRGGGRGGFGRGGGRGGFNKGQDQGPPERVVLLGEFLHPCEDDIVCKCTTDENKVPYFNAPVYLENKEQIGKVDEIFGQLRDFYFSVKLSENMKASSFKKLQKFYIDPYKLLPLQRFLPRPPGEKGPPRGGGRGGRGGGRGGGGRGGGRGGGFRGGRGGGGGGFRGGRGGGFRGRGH
Sequence of telomerase (Q9BUR4 whole entry partner): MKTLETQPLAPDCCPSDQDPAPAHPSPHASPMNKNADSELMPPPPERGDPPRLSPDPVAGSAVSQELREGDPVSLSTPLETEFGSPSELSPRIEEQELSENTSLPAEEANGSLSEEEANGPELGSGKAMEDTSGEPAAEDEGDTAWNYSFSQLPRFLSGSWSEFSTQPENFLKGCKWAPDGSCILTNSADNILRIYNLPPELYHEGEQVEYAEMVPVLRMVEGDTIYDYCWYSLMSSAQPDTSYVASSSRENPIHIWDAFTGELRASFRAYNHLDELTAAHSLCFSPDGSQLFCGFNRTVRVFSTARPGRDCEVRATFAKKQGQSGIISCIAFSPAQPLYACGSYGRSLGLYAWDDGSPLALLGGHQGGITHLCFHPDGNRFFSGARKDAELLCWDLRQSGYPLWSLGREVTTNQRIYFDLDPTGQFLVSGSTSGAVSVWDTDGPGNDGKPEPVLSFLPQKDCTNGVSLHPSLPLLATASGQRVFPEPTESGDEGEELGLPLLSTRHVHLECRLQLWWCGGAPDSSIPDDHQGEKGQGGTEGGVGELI

B1: GSE 24.2: 165-pb cDNA fragment (nucleotides 268 to 433) of human dyskerin, SEQ ID NO1, encoding peptide SEQ ID NO2, expressed from pLNCX plasmid (nucleic acid, listed as Homo sapiens)
DNA: GGTTTCATTAATCTTGACAAGCCCTCTAACCCCTCTTCCCATGAGGTGGTAGCCTGGATTCGACGGATACTTCGGGTGGAGAAGACAGGGCACAGTGGTACTCTGGATCCCAAGGTGACTGGTTGTTTAATCGTGTGCATAGAACGAGCCACTCGCTTGGTGAAG
modifications: expressed from pLNCX plasmid; CDS (1)..(165) Sequence GSE 24.2
- activity of the hTERT promoter, transient expression (hTERT promoter; 293T cells transiently transfected with construct vs empty vector, hTERT-luc, 24 hours): increases the activity of the hTERT promoter
- hTERT promoter activity following cisplatin, transient expression (hTERT promoter; 293T transiently expressing GSE 24.2 vs pLNCX, 3 μg/ml cisplatin 8 hours): greater than the baseline activity
- activity of the hTERT promoter, stable expression (hTERT promoter; pLNCX 24.2 cell line vs pLNCX, hTERT-luc, 24 hours): the activity of the hTERT promoter is greater; also recorded: increased the baseline activity of the telomerase promoter
- induction of hTERT promoter activity following cisplatin, relative to pLNCX cells (hTERT promoter; stable pLNCX 24.2 cells, 3 μg/ml cisplatin for 8 hours): 4 times
- inhibition of telomerase activity by cisplatin in 24.2 cell line (telomerase): no inhibition was observed

From patent US9587002B2, “Sequence of nucleotides and peptides GSE 24.2 of dyskerin, which can induce telomerase activity, method for obtaining same, therapeutic compositions and applications thereof” (CONSEJO SUPERIOR DE INVESTIGACIONES CIENTIFICAS, priority 2005, dated 2017)
